In publication PMC3098719 (Molecular cell, 2008):
Where a chain is given by its changes, count along the chain named. Blank lines part the entries; values can stand above or below the molecule they belong to.

How the values were obtained:
[1] = target: Kae1 (M. jannaschii Kae1, residues 1-328 of MJ1130) (Methanocaldococcus jannaschii, UniProt Q58530); test: ATP-binding assay
[2] = target: T1, GST-Kae1 T88R (M. jannaschii) (Methanococcus jannaschii, UniProt Q58530 1-328, T88R); test: pull-down
T1 sequence (looked up): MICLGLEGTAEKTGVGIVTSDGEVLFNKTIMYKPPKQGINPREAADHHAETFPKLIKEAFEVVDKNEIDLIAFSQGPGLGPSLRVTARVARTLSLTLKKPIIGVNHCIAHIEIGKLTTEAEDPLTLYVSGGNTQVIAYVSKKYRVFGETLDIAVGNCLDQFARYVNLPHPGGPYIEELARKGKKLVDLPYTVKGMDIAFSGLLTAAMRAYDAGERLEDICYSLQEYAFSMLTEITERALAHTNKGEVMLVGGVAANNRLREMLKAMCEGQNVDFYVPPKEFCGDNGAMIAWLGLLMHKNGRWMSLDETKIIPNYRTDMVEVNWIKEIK

[3] = target: T2, GST-Kae1 T88R/T92R (M. jannaschii) (Methanococcus jannaschii, UniProt Q58530 1-328, T88R | T92R); test: pull-down
T2 sequence (looked up): T1 sequence (looked up) with T92R

[4] = target: T3, GST-Kae1 T88R/R91E (M. jannaschii) (Methanococcus jannaschii, UniProt Q58530 1-328, T88R | R91E); test: pull-down
T3 sequence (looked up): T1 sequence (looked up) with R91E

[5] = target: T4, GST-Kae1 (residues 1-328 of Methanococcus jannaschii MJ1130) (Methanococcus jannaschii, UniProt Q58530 1-328); test: pull-down
T4 sequence (looked up): T1 sequence (looked up) with R88T

Sequence of Kae1 (M. jannaschii Kae1, residues 1-328 of MJ1130) (Q58530 1-328): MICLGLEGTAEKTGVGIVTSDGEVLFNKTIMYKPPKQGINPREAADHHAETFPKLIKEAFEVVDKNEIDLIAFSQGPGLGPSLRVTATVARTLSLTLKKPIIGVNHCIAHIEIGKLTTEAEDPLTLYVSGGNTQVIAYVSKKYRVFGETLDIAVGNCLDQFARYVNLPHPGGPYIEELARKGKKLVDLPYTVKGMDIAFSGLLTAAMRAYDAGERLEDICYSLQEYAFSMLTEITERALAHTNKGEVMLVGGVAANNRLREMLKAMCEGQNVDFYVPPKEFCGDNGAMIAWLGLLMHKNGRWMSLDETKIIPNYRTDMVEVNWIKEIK

Kd [1]: 27 µM
Molecule: Nc1ncnc2c1ncn2[C@@H]1O[C@H](COP(=O)(O)OP(=O)(O)OP(=O)(O)O)[C@@H](O)[C@H]1O [ATP]

binding result [2]: binds
binding result [3]: binds
binding result [4]: binds
binding result [5]: binds
B1: Bud32 (residues 328-535 of Methanococcus jannaschii MJ1130), untagged (domain or fragment, UniProt Q58530 328-535, looked up)
chain: KGKKRKIPEHLIGKGAEADIKRDSYLDFDVIIKERVKKGYRDERLDENIRKSRTAREARYLALVKDFGIPAPYIFDVDLDNKRIMMSYINGKLAKDVIEDNLDIAYKIGEIVGKLHKNDVIHNDLTTSNFIFDKDLYIIDFGLGKISNLDEDKAVDLIVFKKAVLSTHHEKFDEIWERFLEGYKSVYDRWEIILELMKDVERRARYVE
